Assay results as given in patent US20230174643A1.

Columns and labels:
[1] = target: Human DLL3 (human) (UniProt Q9NYJ7); assay: cell-based or functional assay
[2] = target: CD3 (human); assay: cell-based or functional assay

Human DLL3 (human), sequence (Q9NYJ7 27-618 limits assumed): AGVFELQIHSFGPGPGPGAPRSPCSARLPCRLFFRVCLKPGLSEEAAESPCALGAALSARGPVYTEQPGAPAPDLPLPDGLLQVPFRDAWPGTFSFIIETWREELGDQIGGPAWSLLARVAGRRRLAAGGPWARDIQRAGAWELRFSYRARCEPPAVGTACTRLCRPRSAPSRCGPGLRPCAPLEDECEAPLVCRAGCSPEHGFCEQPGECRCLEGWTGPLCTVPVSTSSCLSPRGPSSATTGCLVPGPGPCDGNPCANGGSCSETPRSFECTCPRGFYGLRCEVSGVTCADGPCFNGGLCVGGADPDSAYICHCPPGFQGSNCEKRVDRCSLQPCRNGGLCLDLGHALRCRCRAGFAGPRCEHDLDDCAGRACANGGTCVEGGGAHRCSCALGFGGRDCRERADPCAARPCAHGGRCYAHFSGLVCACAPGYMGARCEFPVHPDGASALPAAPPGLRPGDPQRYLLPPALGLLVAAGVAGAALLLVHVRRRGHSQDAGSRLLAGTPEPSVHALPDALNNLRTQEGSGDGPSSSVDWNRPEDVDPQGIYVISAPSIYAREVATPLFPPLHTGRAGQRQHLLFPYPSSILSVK

- EC90 of AMG 757-mediated CD69 upregulation [2]: 4.6 ng/mL
Substance: AMG 757 (bispecific antibody)
- EC50 of AMG 757-mediated cell killing in SHP-77 cells [1]: 2.8 ng/mL
- EC90 of AMG 757-mediated cell killing in SHP-77 cells [1]: 5.7 ng/mL
- in vitro EC90 for AMG 757-mediated cell killing [1]: 5.2 ng/mL
